Tests used:
[1] = biological target: recombinant NOTCH3 protein (Homo sapiens, UniProt Q9UM47); experiment: SPR
[2] = biological target: NOTCH3 on the surface of cells expressing NOTCH3 (Homo sapiens, UniProt Q9UM47); experiment: flow cytometry on cells

B1: MOR20358 anti-NOTCH3 NRR antibody (antibody, V domains shown)
VH: QVQLVQSGAEVKKPGSSVKVSCKASGGTFRTYAMHWVRQAPGQGLEWMGGIVPYHGITDYAQKFQGRVTITADESTSTAYMELSSLRSEDTAVYYCARDDYSTYAFAYWGQGTLVTVSS
VL: DIQMTQSPSSLSASVGDRVTITCRASQSIASYLAWYQQKPGKAPKLLIYDASNLQSGVPSRFSGSGSGTDFTLTISSLQPEDFATYYCQQAYKTPYTFGQGTKVEIK
[1]
  Kd: 0.6 nM
[2]
  EC50: 0.14 nM

— PMC5102827 (Oncogene, 2016)
